Reference: patent publication US20180360992A1 (PRECIGEN, published 2018)

Molecular target: the molecule itself
Assay: native-PAGE/immunoblot of conditioned media of transfected 293T cells; self-association (homodimer)

B1: S100A1 with C-terminal fp2a-cleaved linker tail (2A tail), as cleaved from lead dual-gene and triple-gene constructs (other)
chain: MGSELETAMETLINVFHAHSGKEGDKYKLSKKELKELLQTELSGFLDAQKDVDAVDKVMKELDENGDGEVDFQEYVVLVAALTVACNNFFWENSRAKRAPVKQGSGATNFSLLKQAGDVEENPG
notes: Homodimer seen by native PAGE and immunoblot; also called S100A1 with 2A tail
binding result: binds
